In PMC10681739, “High-throughput data and modeling reveal insights into the mechanisms of cooperative DNA-binding by transcription factor proteins”:
Where a chain is given by its changes, count along the chain named.

B1: Table S3 B row 3940 (dsDNA)
DNA 1: TCTCTAGTTCCCATTATTTCTGTGGTTAATTTCACC
DNA 2: GGTGAAATTAACCACAGAAATAATGGGAACTAGAGA
B2: Table S3 B row 2350 (dsDNA)
DNA 1: CCTGTCTTGTGGTTAAGTCAAGGCAGGCAATGCTTT
DNA 2: AAAGCATTGCCTGCCTTGACTTAACCACAAGACAGG
B3: Table S3 B row 2560 (dsDNA)
DNA 1: TGAGGTTGTGGTTAGGCAGGACGAAGCCGTTTGTAG
DNA 2: CTACAAACGGCTTCGTCCTGCCTAACCACAACCTCA
B4: Table S3 B row 2650 (dsDNA)
DNA 1: CTCCTGGGCTTGTGGTTAGAGCATCATGCAGCAAGG
DNA 2: CCTTGCTGCATGATGCTCTAACCACAAGCCCAGGAG
B5: Table S3 B row 875 (dsDNA)
DNA 1: B4 DNA 1 with G21A, C25G, A26C, G35A
DNA 2: B4 DNA 2 with C2T, T11G, G12C, C16T
B6: Table S3 B row 518 (dsDNA)
DNA 1: GACCCACTGCGGTCATGCTGCTCCCTGCCCAACCCG
DNA 2: CGGGTTGGGCAGGGAGCAGCATGACCGCAGTGGGTC
B7: Table S3 B row 3061 (dsDNA)
DNA 1: CCTCTGCCCAACCACAATTTTCCCTTCGTCAGCCTT
DNA 2: AAGGCTGACGAAGGGAAAATTGTGGTTGGGCAGAGG
B8: Table S3 B row 2134 (dsDNA)
DNA 1: CACCTTGTGGTTTCTCTGAGTGTCACACCTCCCCAG
DNA 2: CTGGGGAGGTGTGACACTCAGAGAAACCACAAGGTG
B9: Table S3 B row 378 (dsDNA)
DNA 1: GCCTGCGGTTTGGGTGCTGTGACCGTACGGGGGCGG
DNA 2: CCGCCCCCGTACGGTCACAGCACCCAAACCGCAGGC
B10: Table S3 B row 2175 (dsDNA)
DNA 1: AAATCAAAACCACAATCAGATACCACTTGCTGCCCA
DNA 2: TGGGCAGCAAGTGGTATCTGATTGTGGTTTTGATTT
B11: Table S3 B row 601 (dsDNA)
DNA 1: GGTTCCTTGCGGTTCGCGGCGTGCCGGGCGTGACAA
DNA 2: TTGTCACGCCCGGCACGCCGCGAACCGCAAGGAACC
B12: Table S3 B row 1458 (dsDNA)
DNA 1: TTCTCCACTGCCTTCTTTACCTCACCTACCACATAA
DNA 2: TTATGTGGTAGGTGAGGTAAAGAAGGCAGTGGAGAA
B13: Table S3 B row 1595 (dsDNA)
DNA 1: CAGTAGGCTGCGGTTGCGCGCGCCGGGTGTGGGCCC
DNA 2: GGGCCCACACCCGGCGCGCGCAACCGCAGCCTACTG
B14: Table S3 B row 586 (dsDNA)
DNA 1: CTTGTCCCTTGTGGTTTTTTGCATTTGCTGTTCCCT
DNA 2: AGGGAACAGCAAATGCAAAAAACCACAAGGGACAAG
B15: Table S3 B row 207 (dsDNA)
DNA 1: GGCTCAAAACCACAGAGAAGCCTCCTATAGTGGGAT
DNA 2: ATCCCACTATAGGAGGCTTCTCTGTGGTTTTGAGCC
B16: Table S3 B row 1255 (dsDNA)
DNA 1: GTCCAACCGCAGCCAGGCAAGCACACCCTGCCCCAC
DNA 2: GTGGGGCAGGGTGTGCTTGCCTGGCTGCGGTTGGAC
B17: Table S3 B row 1736 (dsDNA)
DNA 1: CTCCTGTGGTTTCTAAACTGTCAGCATGTTGGCTTG
DNA 2: CAAGCCAACATGCTGACAGTTTAGAAACCACAGGAG
B18: Table S3 B row 1633 (dsDNA)
DNA 1: CCTTTACGTCCTTTTACTTCTAACCACAGAATTAAA
DNA 2: TTTAATTCTGTGGTTAGAAGTAAAAGGACGTAAAGG
B19: Table S3 B row 1304 (dsDNA)
DNA 1: TCTGCTGCTTCTGTGGTTTACGGAATTTGTAACCCT
DNA 2: AGGGTTACAAATTCCGTAAACCACAGAAGCAGCAGA
B20: Table S3 B row 3915 (dsDNA)
DNA 1: CACCTGACCACAAGGCACACGAAGATCCTTATCACA
DNA 2: TGTGATAAGGATCTTCGTGTGCCTTGTGGTCAGGTG
B21: Table S3 B row 1205 (dsDNA)
DNA 1: TCAGCCTGTGGTTTCTGAAGACCTCCTCGAAGTCAT
DNA 2: ATGACTTCGAGGAGGTCTTCAGAAACCACAGGCTGA
B22: Table S3 B row 3681 (dsDNA)
DNA 1: CGGCACCCTCCTTCGTCCCTGCCAACCGCCTCCACC
DNA 2: GGTGGAGGCGGTTGGCAGGGACGAAGGAGGGTGCCG
B23: Table S3 B row 2419 (dsDNA)
DNA 1: GGCTACAGCAACCGCAAGGCATCACGGAGGTCGTAG
DNA 2: CTACGACCTCCGTGATGCCTTGCGGTTGCTGTAGCC
B24: Table S3 B row 2874 (dsDNA)
DNA 1: TCAGTGCGGTCAGGGAGTCTGTACTGCCTGGATGGC
DNA 2: GCCATCCAGGCAGTACAGACTCCCTGACCGCACTGA
B25: Table S3 B row 2012 (dsDNA)
DNA 1: TTTTTGTGTTTTTGTGGTTTCTTCCGATCTTAGTCA
DNA 2: TGACTAAGATCGGAAGAAACCACAAAAACACAAAAA
B26: Table S3 B row 1223 (dsDNA)
DNA 1: ACTGCTCAAACCACAAACGATAGCAGCAAAGGCCTG
DNA 2: CAGGCCTTTGCTGCTATCGTTTGTGGTTTGAGCAGT
B27: Table S3 B row 1694 (dsDNA)
DNA 1: CTGCAAACCACAAAACACCTGACTGCTACGTAAGAT
DNA 2: ATCTTACGTAGCAGTCAGGTGTTTTGTGGTTTGCAG
B28: Table S3 B row 2093 (dsDNA)
DNA 1: GTTAACCGCACTGCCGCTGGCTGGGTGTCCGCGGCA
DNA 2: TGCCGCGGACACCCAGCCAGCGGCAGTGCGGTTAAC
B29: Table S3 B row 730 (dsDNA)
DNA 1: GTGCCTGACCACAAACCAACATTGCCTGTCTCAATT
DNA 2: AATTGAGACAGGCAATGTTGGTTTGTGGTCAGGCAC
B30: Table S3 B row 2477 (dsDNA)
DNA 1: GGTGCGGTTAAGGCGAGGCTCCTTCTTTACTGTGAC
DNA 2: GTCACAGTAAAGAAGGAGCCTCGCCTTAACCGCACC
B31: Table S3 B row 533 (dsDNA)
DNA 1: AGTTGTGAAACCACAAAACACAGAAAGGAGGTGGTC
DNA 2: GACCACCTCCTTTCTGTGTTTTGTGGTTTCACAACT
B32: Table S3 B row 1899 (dsDNA)
DNA 1: CCGCCGCGACCGCAGGCCTCCGTTCAGCCGGGGTAA
DNA 2: TTACCCCGGCTGAACGGAGGCCTGCGGTCGCGGCGG
B33: Table S3 B row 1104 (dsDNA)
DNA 1: TTTCTGTGGTTTGGTTTCTATAGAGACACTTGCTGT
DNA 2: ACAGCAAGTGTCTCTATAGAAACCAAACCACAGAAA
B34: Table S3 B row 2108 (dsDNA)
DNA 1: GCTCGTTTGTGGTTACTGACACCCGGCCTTCATTTC
DNA 2: GAAATGAAGGCCGGGTGTCAGTAACCACAAACGAGC
B35: Table S3 B row 2442 (dsDNA)
DNA 1: GTGAAAAAGTCTGTGGTTTTGTTTCTTGAACACCTG
DNA 2: CAGGTGTTCAAGAAACAAAACCACAGACTTTTTCAC
B36: Table S3 B row 2109 (dsDNA)
DNA 1: ATGTCAGTAACCACAAACGAGCCACAGCATAAGAAC
DNA 2: GTTCTTATGCTGTGGCTCGTTTGTGGTTACTGACAT
B37: Table S3 B row 1550 (dsDNA)
DNA 1: TGACCTTTGTGGTTTGGTCAGCAAGTGGGGTACTGG
DNA 2: CCAGTACCCCACTTGCTGACCAAACCACAAAGGTCA
B38: Table S3 B row 1212 (dsDNA)
DNA 1: GCTTTTCTGTGGTTTTTCTCACACGGGAATTGAGAG
DNA 2: CTCTCAATTCCCGTGTGAGAAAAACCACAGAAAAGC
B39: Table S3 B row 871 (dsDNA)
DNA 1: ATGACCGATCAACCGCAAAGGCCGGGAATGCGTCAG
DNA 2: CTGACGCATTCCCGGCCTTTGCGGTTGATCGGTCAT
B40: Table S3 B row 2890 (dsDNA)
DNA 1: CGGTCTGACCACAAACTCTGCCTTACGGCAAGGCTG
DNA 2: CAGCCTTGCCGTAAGGCAGAGTTTGTGGTCAGACCG
B41: Table S3 B row 1412 (dsDNA)
DNA 1: GTCGCCCCCACCGCAAGTATTTCAGCTTCCCTCCGC
DNA 2: GCGGAGGGAAGCTGAAATACTTGCGGTGGGGGCGAC
B42: Table S3 B row 2945 (dsDNA)
DNA 1: GCTCCTCACTGCGGTCACAGCCACATGCTGCAGAGC
DNA 2: GCTCTGCAGCATGTGGCTGTGACCGCAGTGAGGAGC
B43: Table S3 B row 2983 (dsDNA)
DNA 1: ACTCTGTGGTTTCATTGCCTGCCCGTAAATGCAGCT
DNA 2: AGCTGCATTTACGGGCAGGCAATGAAACCACAGAGT
B44: Table S3 B row 3404 (dsDNA)
DNA 1: TTGGTCTTGTGGTTTTGCAAGGCAGGGGTGATATAT
DNA 2: ATATATCACCCCTGCCTTGCAAAACCACAAGACCAA
B45: Table S3 B row 71 (dsDNA)
DNA 1: CCTTTGTTGTGGTTTTTGCAGAAAGAGAAGGGTTAG
DNA 2: CTAACCCTTCTCTTTCTGCAAAAACCACAACAAAGG

Target: RUNX1 (Homo sapiens, UniProt Q01196)
Sequence (Q01196 whole entry): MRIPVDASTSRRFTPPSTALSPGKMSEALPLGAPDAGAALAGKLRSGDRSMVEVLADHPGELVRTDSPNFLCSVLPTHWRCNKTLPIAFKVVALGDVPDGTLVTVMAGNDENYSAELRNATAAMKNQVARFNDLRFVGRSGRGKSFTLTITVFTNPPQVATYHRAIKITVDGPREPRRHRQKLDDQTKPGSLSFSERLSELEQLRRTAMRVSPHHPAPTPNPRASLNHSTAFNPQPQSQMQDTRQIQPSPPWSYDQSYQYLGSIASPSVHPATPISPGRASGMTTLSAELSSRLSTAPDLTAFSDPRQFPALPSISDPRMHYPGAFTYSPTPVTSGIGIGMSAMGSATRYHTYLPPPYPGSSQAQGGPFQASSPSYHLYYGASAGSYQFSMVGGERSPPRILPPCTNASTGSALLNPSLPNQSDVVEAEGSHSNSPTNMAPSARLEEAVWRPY
Experiment: gcPBM; 2 nM RUNX1
Conditions: tags: N-terminal GST (pDEST15), kept (PMC6008103); label: surface-attached array probe

Binder	binding signal
B1	5800 PBM fluorescence, median of replicate spots
B2	5190 PBM fluorescence, median of replicate spots
B3	7390 PBM fluorescence, median of replicate spots
B4	6170 PBM fluorescence, median of replicate spots
B5	6070 PBM fluorescence, median of replicate spots
B6	6470 PBM fluorescence, median of replicate spots
B7	6030 PBM fluorescence, median of replicate spots
B8	6600 PBM fluorescence, median of replicate spots
B9	10500 PBM fluorescence, median of replicate spots
B10	6180 PBM fluorescence, median of replicate spots
B11	5880 PBM fluorescence, median of replicate spots
B12	5560 PBM fluorescence, median of replicate spots
B13	5670 PBM fluorescence, median of replicate spots
B14	7790 PBM fluorescence, median of replicate spots
B15	5720 PBM fluorescence, median of replicate spots
B16	8530 PBM fluorescence, median of replicate spots
B17	6800 PBM fluorescence, median of replicate spots
B18	6510 PBM fluorescence, median of replicate spots
B19	5370 PBM fluorescence, median of replicate spots
B20	5610 PBM fluorescence, median of replicate spots
B21	6080 PBM fluorescence, median of replicate spots
B22	5850 PBM fluorescence, median of replicate spots
B23	5220 PBM fluorescence, median of replicate spots

Binder	binding signal
B24	5600 PBM fluorescence, median of replicate spots
B25	9430 PBM fluorescence, median of replicate spots
B26	6810 PBM fluorescence, median of replicate spots
B27	9300 PBM fluorescence, median of replicate spots
B28	6840 PBM fluorescence, median of replicate spots
B29	6950 PBM fluorescence, median of replicate spots
B30	6190 PBM fluorescence, median of replicate spots
B31	5640 PBM fluorescence, median of replicate spots
B32	6120 PBM fluorescence, median of replicate spots
B33	8510 PBM fluorescence, median of replicate spots
B34	8520 PBM fluorescence, median of replicate spots
B35	9320 PBM fluorescence, median of replicate spots
B36	5490 PBM fluorescence, median of replicate spots
B37	9070 PBM fluorescence, median of replicate spots
B38	8950 PBM fluorescence, median of replicate spots
B39	7280 PBM fluorescence, median of replicate spots
B40	5700 PBM fluorescence, median of replicate spots
B41	6050 PBM fluorescence, median of replicate spots
B42	6290 PBM fluorescence, median of replicate spots
B43	5930 PBM fluorescence, median of replicate spots
B44	8240 PBM fluorescence, median of replicate spots
B45	10300 PBM fluorescence, median of replicate spots
